# Results: US20190112392A1 (Ablynx, published 2019)
# T1: soluble recombinant cynomolgus TCR alpha/beta-zipper protein (cynomolgus/rhesus monkey)
# T1 construct: Made in house in CHOK1SV cells; extracellular domains fused to a zipper protein; also called cynoTCR-zipper protein; not shown: zipper protein (O'Shea et al. 1993)
# T1 V domain 1: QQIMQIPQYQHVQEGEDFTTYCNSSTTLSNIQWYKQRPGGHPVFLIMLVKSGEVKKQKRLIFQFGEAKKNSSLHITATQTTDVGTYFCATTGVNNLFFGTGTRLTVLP
# T1 V domain 2: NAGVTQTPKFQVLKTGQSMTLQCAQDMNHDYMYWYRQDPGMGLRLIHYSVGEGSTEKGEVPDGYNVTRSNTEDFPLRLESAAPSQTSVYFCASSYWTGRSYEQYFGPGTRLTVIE
# T2: T cell receptor alpha/beta on purified primary human T cells (human, UniProt P01848 1-140; P01850 1-176)
# T2 construct: whole, on cells; also called human primary T cells
# T2 TCR alpha (looked up): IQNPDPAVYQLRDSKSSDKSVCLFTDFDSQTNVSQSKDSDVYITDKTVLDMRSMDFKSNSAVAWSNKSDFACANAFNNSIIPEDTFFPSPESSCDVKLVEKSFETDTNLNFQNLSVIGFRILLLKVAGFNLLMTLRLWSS
# T2 TCR beta (looked up): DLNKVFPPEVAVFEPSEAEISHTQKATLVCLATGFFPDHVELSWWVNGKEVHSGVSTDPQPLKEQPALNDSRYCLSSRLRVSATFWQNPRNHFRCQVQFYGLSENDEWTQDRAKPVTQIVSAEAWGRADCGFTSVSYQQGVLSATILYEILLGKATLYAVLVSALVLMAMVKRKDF
# T3: CEACAM5 on cells (UniProt P06731 35-685)
# T3 sequence (looked up): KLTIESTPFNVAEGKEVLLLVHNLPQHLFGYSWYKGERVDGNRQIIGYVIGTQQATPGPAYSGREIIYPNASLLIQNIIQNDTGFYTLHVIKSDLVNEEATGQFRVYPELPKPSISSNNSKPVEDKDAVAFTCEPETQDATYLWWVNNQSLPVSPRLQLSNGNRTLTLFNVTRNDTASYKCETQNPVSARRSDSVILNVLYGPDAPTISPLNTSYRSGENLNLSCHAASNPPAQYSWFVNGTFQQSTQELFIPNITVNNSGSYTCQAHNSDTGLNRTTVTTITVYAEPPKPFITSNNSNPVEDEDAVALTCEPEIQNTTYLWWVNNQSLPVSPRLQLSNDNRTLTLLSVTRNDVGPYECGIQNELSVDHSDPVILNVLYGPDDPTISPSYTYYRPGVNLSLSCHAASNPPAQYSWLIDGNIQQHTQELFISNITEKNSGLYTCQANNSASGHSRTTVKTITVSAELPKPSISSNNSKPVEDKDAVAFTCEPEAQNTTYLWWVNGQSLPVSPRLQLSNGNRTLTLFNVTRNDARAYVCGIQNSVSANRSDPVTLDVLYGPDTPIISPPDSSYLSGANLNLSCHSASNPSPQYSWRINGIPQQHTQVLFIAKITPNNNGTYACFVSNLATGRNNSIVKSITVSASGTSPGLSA
# What was measured:
# HER2 on cells = HER2 on cells (human, UniProt P04626 23-1255); assay: cell-based or functional assay
# [1] = molecular target: T cell receptor alpha/beta on primary cynomolgus T cells (cynomolgus); assay: cell-based or functional assay
# [2] = molecular target: T4, human CD3 expressed on HEK293H cells (human, UniProt P04234 22-171; P09693 23-182; P07766 23-207; P20963 22-164); assay: flow cytometry, HEK293H human CD3 cells
# T4 construct: also called HEK293H human CD3; HEK293H CD3
# T4 sequence (P04234 22-171 limits assumed, chain 1 of 4): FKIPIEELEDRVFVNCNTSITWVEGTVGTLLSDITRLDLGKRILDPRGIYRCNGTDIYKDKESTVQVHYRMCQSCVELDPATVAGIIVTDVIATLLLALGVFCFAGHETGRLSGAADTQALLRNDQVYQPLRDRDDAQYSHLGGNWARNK
# T4 sequence (P09693 23-182 limits assumed, chain 2 of 4): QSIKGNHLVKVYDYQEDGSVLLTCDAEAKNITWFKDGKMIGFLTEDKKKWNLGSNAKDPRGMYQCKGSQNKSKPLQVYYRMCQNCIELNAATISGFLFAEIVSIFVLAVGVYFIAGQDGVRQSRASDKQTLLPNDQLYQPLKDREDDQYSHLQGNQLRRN
# T4 sequence (P07766 23-207 limits assumed, chain 3 of 4): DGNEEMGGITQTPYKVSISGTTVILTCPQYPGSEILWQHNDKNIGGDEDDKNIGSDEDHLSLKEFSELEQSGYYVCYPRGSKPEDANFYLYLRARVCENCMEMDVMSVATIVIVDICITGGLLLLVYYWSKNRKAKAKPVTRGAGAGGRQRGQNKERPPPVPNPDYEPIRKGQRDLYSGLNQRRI
# T4 sequence (P20963 22-164 limits assumed, chain 4 of 4): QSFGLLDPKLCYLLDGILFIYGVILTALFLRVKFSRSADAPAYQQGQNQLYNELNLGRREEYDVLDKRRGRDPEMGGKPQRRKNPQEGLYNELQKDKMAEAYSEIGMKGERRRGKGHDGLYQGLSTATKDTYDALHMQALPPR
# Procedure: (§1) Binding of purified monovalent anti-TCR Nanobodies to human TCR(2IAN)/CD3 expressed on HEK293H cells was evaluated and compared with the binding to HEK293H cells transfected with human CD3 in flow cytometry, as outlined in Example 5. Dilution series of anti-TCR Nanobodies starting from 1 μM were applied to the cells. The parental HEK293H cell line was included as TCR/CD3 negative cell line.
# Nanobodies clearly bound to human TCR(2IAN)/CD3 expressed on HEK293H but not to the HEK293H cells transfected with human CD3 only, nor to the HEK293H parental cell line. The EC50 values obtained from the dose response curve are depicted in Table C-2.
# [3] = molecular target: T1, soluble recombinant cynomolgus TCR …; assay: ELISA, coated soluble cynomolgus TCR-zipper
# Procedure: Quality of the TCR α/β zipper proteins was assessed in an ELISA binding assay. Maxisorp 96-well ELISA plates (Nunc) were coated with 2 μg/mL soluble recombinant human TCR α/β (2XN9)-zipper protein or soluble recombinant cynomolgus TCR α/β-zipper protein. After an overnight incubation, plates were washed and blocked with PBS+1% casein for 1 h at room temperature. Next, plates were incubated with serial dilutions of either a functional flag tagged Nanobody or the functional mouse IgG anti-non-human primate/Rat TCRα/β antibody, clone R73 (eBioscience 16-5960) for 1 h at room temperature while shaking, washed again and incubated with mouse anti-flag-HRP (Sigma, #A8592) respectively rabbit anti-mouse-HRP (Dako, # P0260). After 1 h, TMB One Solution (Promega #G7431) was added. The reaction was stopped with 2M H₂SO₄ and the dose dependent binding was determined by measuring the OD at 450 nm using the Tecan sunrise 4 (FIG. 2).
# Binding of purified monovalent anti-TCR Nanobodies to soluble recombinant cynomolgus TCR c/3 protein was evaluated in ELISA (as described in Example 1.2) using 2 μg/ml directly coated recombinant soluble cynomolgus TCR-α/β zipper protein.
# [4] = molecular target: T2, T cell receptor alpha/beta on purified …; assay: flow cytometry, purified primary human T cells
# Procedure: Periplasmic extracts were screened for cell expressed TCR/CD3 binding using human TCR/CD3 transfected CHO-K1 or HEK293H cells and the respective CHO-K1 or HEK293H reference cell line in a mixed cell line setup. To this end, a large batch of the reference cell lines were labelled with 8 μM PKH26 and frozen. 5×10⁴ PKH labelled reference cells were mixed with 5×10⁴ target cells and incubated with periplasmic extracts for 30 min at 4′C, and washed 3 times. […] Samples were washed, resuspended in FACS Buffer (D-PBS from Gibco, with 10% FBS from Sigma and 0.05% sodium azide from Merck) and then analysed via a BD FACSArray. […] In this gate, 20,000 cells were counted during acquisition. Based on PKH26-SSC distribution, the PKH labelled parental population and the human TCR/CD3 unlabelled target population was selected. For these 2 populations the mean APC value was calculated.
# Binding of purified monovalent anti-TCR Nanobodies to human TCR(2XN9)/CD3 expressed on CHO-K1 cells and to purified primary human T cells was evaluated in flow cytometry as outlined in Example 4.1.
# [5] = molecular target: T4, human CD3 expressed on HEK293H cells; assay: flow cytometry on HEK293H human CD3 cells, MCF
# Procedure: as §1
# CEACAM5 on cells [6] = molecular target: T3, CEACAM5 on cells; assay: cell-based or functional assay
# CEACAM5 on cells [7] = molecular target: T3, CEACAM5 on cells; assay: flow cytometry, LoVo cells; set-up: Top: unit not given here
# CEACAM5 on cells [8] = molecular target: T3, CEACAM5 on cells; assay: flow cytometry, LS174T cells; set-up: Top: unit not given here
# EGFR on cells = molecular target: T5, EGFR on cells (UniProt P00533 25-1210, limits assumed); assay: flow cytometry on HER14 cells, MeanFI (PE)
# T5 construct: whole, on cells; also called HER14 cells (NIH3T3 transfected with EGFR); EGFR on LS174T and LoVo cells
# CEACAM5 on cells [9] = molecular target: T3, CEACAM5 on cells; assay: cell-based or functional assay; remark: listed apart in the source
binder,measurement,setting,value
T017000103 (bispecific antibody) EVQLVESGGGLVQPGGSLRLSCVASGDVHKINFLGWYRQAPGKEREKVAHISIGDQTDYADSAKGRFTISRDESKNMVYLQMNSLKPEDTAVYFCRAFSRIYPYDYWGQGTLVTVSSGGGGSGGGGSGGGGSGGGGSGGGGSGGGGSGGGGSEVQLVESGGGLVQAGGSLRLSCAASGITFSINTMGWYRQAPGKQRELVALISSIGDTYYADSVKGRFTISRDNAKNTVYLQMNSLKPEDTAVYYCKRFRTAAQGTDYWGQGTLVTVSSGAADYKDHDGDYKDHDIDYKDDDDKGAAHHHHHH,"IC50, xCELLigence based cytotoxicity (readout 18 h), MCF-7, human T cells, E/T 15:1",HER2 on cells,0.059 nM
same,"IC50, xCELLigence based cytotoxicity (readout 18 h), SKBR3, human T cells, E/T 15:1",HER2 on cells,0.0038 nM
same,"IC50, xCELLigence cynomolgus T cell mediated SKBR3 killing assay",[1],0.012 nM
"T0170068G05 (VHH, Monovalent anti-TCR Nanobody, cluster B; expressed in E. coli as triple Flag, His6-tagged protein; also called T0170PMP068G05; not shown: C-terminal triple Flag-His6 tag of the E. coli-made monovalent Nanobody) VHH: VQLVEESGGGLVQPGGSLRLSCITSGETFKINIWGWYRQAPGKQRELVASLTIGGATNYADSVKGRFTISEDSAKNTVYLQMNSLKPEDTAVYFCNAKSRIYPYDYWGRGTQVTVSS",MCF at 1 µM,[2],240 MCF
same,EC50,[3],87 nM
same,EC50,[4],> 100 nM
same,binding result,[5],no binding (tested: 1e-6 M)
"T017000109 (other, Irrelevant (anti-egg lysozyme) x CEACAM5 x TCR Nanobody construct; entry includes the FLAG3-HIS6 tag; also called cAbLys3(D1E,Q5V,A6E,Q108L)-35GS-NbCEA5-35GS-T0170056G05-FLAG3-HIS6) EVQLVESGGGSVQAGGSLRLSCAASGYTIGPYCMGWFRQAPGKEREGVAAINMGGGITYYADSVKGRFTISQDNAKNTVYLLMNSLEPEDTAIYYCAADSTIYASYYECGHGLSTGGYGYDSWGQGTLVTVSSGGGGSGGGGSGGGGSGGGGSGGGGSGGGGSGGGGSEVQLVESGGGSVQAGGSLRLSCAASGDTYGSYWMGWFRQAPGKEREGVAAINRGGGYTVYADSVKGRFTISRDTAKNTVYLQMNSLRPDDTADYYCAASGVLGGLHEDWFNYWGQGTLVTVSSGGGGSGGGGSGGGGSGGGGSGGGGSGGGGSGGGGSEVQLVESGGGLVQPGGSLRLSCVASGDVHKINFLGWYRQAPGKEREKVAHISIGDQTDYADSAKGRFTISRDESKNMVYLQMNSLKPEDTAVYFCRAFSRIYPYDYWGQGTLVTVSSGAADYKDHDGDYKDHDIDYKDDDDKGAAHHHHHH","IC50, xCELLigence human T cell mediated killing of LS174T cells, E:T 15, 50-60 h",CEACAM5 on cells [6],36 nM
same,"IC50, xCELLigence human T cell mediated killing of LoVo cells, E:T 15, 50-60 h",CEACAM5 on cells [6],2 nM
same,EC50,CEACAM5 on cells [7],36 nM
same,Top,CEACAM5 on cells [7],18500
same,EC50,CEACAM5 on cells [8],25 nM
same,Top,CEACAM5 on cells [8],51000
same,binding result,EGFR on cells,no binding (tested: 5e-7 M)
same,"IC50, xCELLigence human T cell mediated killing of LS174T cells, E:T 15, 30-40 h",CEACAM5 on cells [9],100 nM
same,"IC50, xCELLigence human T cell mediated killing of LoVo cells, E:T 15, 30-40 h",CEACAM5 on cells [9],9.3 nM
